Assay results: the supplement of paper PMC9732359
± gives the uncertainty stated by the source.

Test: protein stability index of a GFP-peptide fusion (yeast GPS) (PSI 1-4); higher = more stable; sorted into four equal gates, so the index is relative within each strain
Settings: doa10∆
Procedure, shortened: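 Each library plasmid carries Cherry plus GFP with a tiled 17-residue yeast protein peptide fused downstream, and the pooled library was carried in yeast. Mid-log cultures in leucine-free medium were sorted into four equal gates by GFP/Cherry ratio. Reads from Illumina sequencing of PCR-amplified plasmids from each gate were assigned to strains by barcodes. Per peptide, the protein stability index was computed as the summed products of gate read frequency and gate number.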

Sequence | protein stability index
EDEGTLNVAEIITSGRD [ARP9] | 3.27 ± 0.22
EDEVKVEGPKFTIDAKP [YLR335W/NUP2] | 3.54 ± 0.15
EDFQVLRLGRGINPNTF [YDL088C/ASM4] | 3.29 ± 0.11
EDFRIQFKTTIKDTAND [UBP6] | 2.49 ± 0.067
EDHMLKKIENTMLENIT [RPO21] | 2.73 ± 0.1
EDIIANYASVYPVVEVE [RRP43] | 2.47 ± 0.098
EDIMVHYDNTTRNSLGN [RPO21] | 3.1 ± 0.09
EDKRKVRSAEYYAKKRA [RPL16B] | 3.31 ± 0.1
EDLVDRIENPEKYAAAA [RPP0] | 3.05 ± 0.078
EDPDQEECSGRRWNKLC [YGL100W/SEH1] | 2.24 ± 0.07
EDTNLAAIHAKRVTIQK [HHT1] | 2.88 ± 0.078
EDVTPVPSDSTRKKGGR [RPS14A] | 3.1 ± 0.13
EEALNFDISMADLSSSE [SSN2] | 2.85 ± 0.06
EECSGRRWNKLCTLNDS [YGL100W/SEH1] | 2.99 ± 0.051
EEEDAKNPLFSYVEPVL [RPL31A] | 2.88 ± 0.042
EEELFQEMIEISNVIKP [SRP54] | 3.04 ± 0.077
EEEVDIDMDKLNTVLIA [RRP43] | 3.35 ± 0.091
EEFRNLAALNVWYGLSD [SSN2] | 3.37 ± 0.14
EEGYSGVEVRVTPTKTE [RPS3] | 2.18 ± 0.16

Sequence | protein stability index
EELDITPLFPIDRNSTI [IRR1] | 2.48 ± 0.11
EENDLQQKLNTRMQRGH [REC8] | 3.17 ± 0.12
EENPIMQTALRRLPEDE [QCR7] | 3.45 ± 0.28
EERKRWAMQGISYLQEV [PCI8] | 3.58 ± 0.19
EEWLNTKDPDEQQLFEI [CSN9] | 3.06 ± 0.11
EEYLDANVFRLENQKDL [MTW1] | 3.4 ± 0.081
EFIPPDPTKVTEFEFYL [SSN8] | 3.04 ± 0.055
EFIRCGCLIKNLPRTKA [RMP1] | 2.17 ± 0.087
EFLYPHLNFPNVKFLRI [SNF12] | 2.21 ± 0.19
EFVNGGKVVKNVLLLDS [RRP46] | 2.42 ± 0.17
EGDQAEVIFSFEGTPPF [YMR129W/POM152] | 3.29 ± 0.17
EGNVPQTLAPVPYETFI [RPL21A] | 3.06 ± 0.066
EHDLLRQIRPIMERIKS [ITC1] | 1.37 ± 0.28
EHGLHAPAYAWSHNGPF [CYT1] | 2.83 ± 0.11
EHVILGNGELYMDCLLY [SNU114] | 2.31 ± 0.053
EIAFHLTLIFYDVLHDV [YML103C/NUP188] | 1.26 ± 0.072
EIDHVEYYVMMDFANLW [SRB8] | 2.98 ± 0.067
EIFAFGNIKDLPENIIL [CSN9] | 2.7 ± 0.066
EIFKKGYIKNNKKIYQW [POP6] | 3.46 ± 0.24

Same assay, conditions: pdr5∆

Sequence | protein stability index
EDEGTLNVAEIITSGRD [ARP9] | 3.21 ± 0.15
EDEVKVEGPKFTIDAKP [YLR335W/NUP2] | 3.52 ± 0.2
EDFQVLRLGRGINPNTF [YDL088C/ASM4] | 3.45 ± 0.19
EDFRIQFKTTIKDTAND [UBP6] | 2.47 ± 0.07
EDHMLKKIENTMLENIT [RPO21] | 2.78 ± 0.086
EDIIANYASVYPVVEVE [RRP43] | 2.77 ± 0.092
EDIMVHYDNTTRNSLGN [RPO21] | 3.1 ± 0.095
EDKRKVRSAEYYAKKRA [RPL16B] | 3.38 ± 0.089
EDLVDRIENPEKYAAAA [RPP0] | 3.28 ± 0.099
EDPDQEECSGRRWNKLC [YGL100W/SEH1] | 2.16 ± 0.083
EDTELYQELIKNGALVS [YJL039C/NUP192] | 2.77 ± 0.087
EDTNLAAIHAKRVTIQK [HHT1] | 3.04 ± 0.099
EDVTPVPSDSTRKKGGR [RPS14A] | 3.24 ± 0.079
EEALNFDISMADLSSSE [SSN2] | 2.95 ± 0.053
EECSGRRWNKLCTLNDS [YGL100W/SEH1] | 3.17 ± 0.053
EEEDAKNPLFSYVEPVL [RPL31A] | 2.63 ± 0.036
EEELFQEMIEISNVIKP [SRP54] | 3.28 ± 0.066
EEEVDIDMDKLNTVLIA [RRP43] | 3.32 ± 0.095
EEFRNLAALNVWYGLSD [SSN2] | 2.8 ± 0.13
EEGYSGVEVRVTPTKTE [RPS3] | 3.15 ± 0.11

Sequence | protein stability index
EELDITPLFPIDRNSTI [IRR1] | 2.9 ± 0.14
EENDLQQKLNTRMQRGH [REC8] | 3.14 ± 0.078
EENPIMQTALRRLPEDE [QCR7] | 3.52 ± 0.28
EERKRWAMQGISYLQEV [PCI8] | 3.15 ± 0.13
EESSTGKSTADVKSSDS [YJL041W/NSP1] | 3.35 ± 0.19
EEWLNTKDPDEQQLFEI [CSN9] | 3.16 ± 0.12
EEYLDANVFRLENQKDL [MTW1] | 3.38 ± 0.087
EFFNTLRKSRETVKLPR [RRI2] | 3.55 ± 0.18
EFIPPDPTKVTEFEFYL [SSN8] | 2.85 ± 0.039
EFIRCGCLIKNLPRTKA [RMP1] | 2.82 ± 0.1
EFLYPHLNFPNVKFLRI [SNF12] | 2.67 ± 0.27
EFVNGGKVVKNVLLLDS [RRP46] | 2.02 ± 0.069
EGDQAEVIFSFEGTPPF [YMR129W/POM152] | 3.39 ± 0.17
EGNVPQTLAPVPYETFI [RPL21A] | 2.74 ± 0.056
EHDLLRQIRPIMERIKS [ITC1] | 2.3 ± 0.27
EHGLHAPAYAWSHNGPF [CYT1] | 3 ± 0.073
EHVILGNGELYMDCLLY [SNU114] | 2.73 ± 0.073
EIAFHLTLIFYDVLHDV [YML103C/NUP188] | 1.47 ± 0.055
EIDHVEYYVMMDFANLW [SRB8] | 2.69 ± 0.054
EIFAFGNIKDLPENIIL [CSN9] | 2.92 ± 0.056

Same assay, conditions: san1∆

Sequence | protein stability index
EDEGTLNVAEIITSGRD [ARP9] | 3.24 ± 0.079
EDEVKVEGPKFTIDAKP [YLR335W/NUP2] | 3.45 ± 0.071
EDFQVLRLGRGINPNTF [YDL088C/ASM4] | 3.06 ± 0.11
EDFRIQFKTTIKDTAND [UBP6] | 2.16 ± 0.063
EDHMLKKIENTMLENIT [RPO21] | 2.92 ± 0.077
EDIIANYASVYPVVEVE [RRP43] | 2.85 ± 0.14
EDIMVHYDNTTRNSLGN [RPO21] | 3.35 ± 0.041
EDKRKVRSAEYYAKKRA [RPL16B] | 3.36 ± 0.071
EDKVFASKGRTKIDMPI [BRN1] | 2.59 ± 0.26
EDLVDRIENPEKYAAAA [RPP0] | 2.93 ± 0.054
EDPDQEECSGRRWNKLC [YGL100W/SEH1] | 1.88 ± 0.1
EDTELYQELIKNGALVS [YJL039C/NUP192] | 3.21 ± 0.11
EDTNLAAIHAKRVTIQK [HHT1] | 2.97 ± 0.059
EDVTPVPSDSTRKKGGR [RPS14A] | 3.41 ± 0.065
EEALNFDISMADLSSSE [SSN2] | 3.05 ± 0.07
EECSGRRWNKLCTLNDS [YGL100W/SEH1] | 2.82 ± 0.05
EEEDAKNPLFSYVEPVL [RPL31A] | 2.12 ± 0.047
EEELFQEMIEISNVIKP [SRP54] | 3.34 ± 0.064
EEEVDIDMDKLNTVLIA [RRP43] | 3.02 ± 0.077

Sequence | protein stability index
EEFRNLAALNVWYGLSD [SSN2] | 2.39 ± 0.12
EEGRAIPGEYVTYALSG [RPS21A] | 2.81 ± 0.19
EEGYSGVEVRVTPTKTE [RPS3] | 2.88 ± 0.091
EELDITPLFPIDRNSTI [IRR1] | 2.9 ± 0.095
EENDLQQKLNTRMQRGH [REC8] | 3.2 ± 0.22
EERKRWAMQGISYLQEV [PCI8] | 3.12 ± 0.15
EEWLNTKDPDEQQLFEI [CSN9] | 3.24 ± 0.051
EEYLDANVFRLENQKDL [MTW1] | 3.28 ± 0.057
EFFNTLRKSRETVKLPR [RRI2] | 3.02 ± 0.15
EFIPPDPTKVTEFEFYL [SSN8] | 2.88 ± 0.051
EFIRCGCLIKNLPRTKA [RMP1] | 2.3 ± 0.11
EFVNGGKVVKNVLLLDS [RRP46] | 1.34 ± 0.2
EGDQAEVIFSFEGTPPF [YMR129W/POM152] | 2.52 ± 0.21
EGNVPQTLAPVPYETFI [RPL21A] | 3.08 ± 0.052
EHGLHAPAYAWSHNGPF [CYT1] | 2.52 ± 0.087
EHVILGNGELYMDCLLY [SNU114] | 2.76 ± 0.086
EIAFHLTLIFYDVLHDV [YML103C/NUP188] | 1.63 ± 0.17
EIDHVEYYVMMDFANLW [SRB8] | 2.81 ± 0.056
EIFAFGNIKDLPENIIL [CSN9] | 2.8 ± 0.043

Same assay, conditions: ubr1∆

Sequence | protein stability index
EDEGTLNVAEIITSGRD [ARP9] | 3.29 ± 0.15
EDFQVLRLGRGINPNTF [YDL088C/ASM4] | 3.52 ± 0.064
EDFRIQFKTTIKDTAND [UBP6] | 2.43 ± 0.054
EDHMLKKIENTMLENIT [RPO21] | 2.85 ± 0.083
EDIIANYASVYPVVEVE [RRP43] | 2.72 ± 0.079
EDIMVHYDNTTRNSLGN [RPO21] | 3.06 ± 0.075
EDKRKVRSAEYYAKKRA [RPL16B] | 3.46 ± 0.055
EDLVDRIENPEKYAAAA [RPP0] | 3.09 ± 0.057
EDPDQEECSGRRWNKLC [YGL100W/SEH1] | 2.27 ± 0.057
EDTELYQELIKNGALVS [YJL039C/NUP192] | 2.57 ± 0.069
EDTNLAAIHAKRVTIQK [HHT1] | 2.92 ± 0.056
EDVTPVPSDSTRKKGGR [RPS14A] | 3.45 ± 0.075
EEALNFDISMADLSSSE [SSN2] | 2.6 ± 0.049
EECSGRRWNKLCTLNDS [YGL100W/SEH1] | 2.78 ± 0.041
EEEDAKNPLFSYVEPVL [RPL31A] | 2.21 ± 0.026
EEELFQEMIEISNVIKP [SRP54] | 3.37 ± 0.13
EEEVDIDMDKLNTVLIA [RRP43] | 2.89 ± 0.068
EEFRNLAALNVWYGLSD [SSN2] | 2.94 ± 0.074
EEGRAIPGEYVTYALSG [RPS21A] | 2.96 ± 0.16

Sequence | protein stability index
EEGYSGVEVRVTPTKTE [RPS3] | 3.11 ± 0.08
EELDITPLFPIDRNSTI [IRR1] | 2.8 ± 0.1
EENDLQQKLNTRMQRGH [REC8] | 3.4 ± 0.048
EENPIMQTALRRLPEDE [QCR7] | 3.39 ± 0.18
EERKRWAMQGISYLQEV [PCI8] | 3.23 ± 0.11
EEWLNTKDPDEQQLFEI [CSN9] | 3.15 ± 0.075
EEYLDANVFRLENQKDL [MTW1] | 3.3 ± 0.044
EFIPPDPTKVTEFEFYL [SSN8] | 2.68 ± 0.031
EFIRCGCLIKNLPRTKA [RMP1] | 2.53 ± 0.077
EFLYPHLNFPNVKFLRI [SNF12] | 3.15 ± 0.1
EFVNGGKVVKNVLLLDS [RRP46] | 1.9 ± 0.11
EGDQAEVIFSFEGTPPF [YMR129W/POM152] | 3.36 ± 0.1
EGNVPQTLAPVPYETFI [RPL21A] | 2.78 ± 0.056
EHGLHAPAYAWSHNGPF [CYT1] | 2.87 ± 0.054
EHVILGNGELYMDCLLY [SNU114] | 2.67 ± 0.063
EIAFHLTLIFYDVLHDV [YML103C/NUP188] | 1.99 ± 0.086
EIDHVEYYVMMDFANLW [SRB8] | 2.92 ± 0.036
EIFAFGNIKDLPENIIL [CSN9] | 2.93 ± 0.042
